The values that follow come from patent publication US20050069541A1, “Composition for and treatment of demyelinating diseases and paralysis by administration of remyelinating agents” (priority 2003, published 2005).

Data set [1] has as its target α6 integrin (human) (human) (UniProt P23229).
For data set [2], the target named is L-selectin (mouse) (mouse) (UniProt P18337).
Data set [3] has as its target Thy 1.1 (rat) (rat) (UniProt P01830).
Data set [4] concerns the target β2 integrin (human) (human) (UniProt P05107).
For data set [5], the target named is α4 integrin (Homo sapiens, UniProt P05556+P13612). The data set can be described thus: Inhibition of cell adhesion to VCAM. The conditions noted are these: 100% serum; read-out: IC50 for inhibition of cell adhesion to high density VCAM-1 in the presence of 100% serum. In kind it is cell-based, human and guinea pig.
In data set [6] the test system is EAE in female Hartley guinea pigs. The conditions noted are these: listed as N-[N-(3-pyridinesulfonyl)-L-3,3-dimethyl-4-thiaprolyl]-O-[1-methylpiperzain-4-yl.
Data set [7] relates to IL-2, IL-10, MCP-1 RNA. The experiment in a line: Chronic EAE: quantitative RT-PCR of spinal cord. In kind it is in vivo, guinea pig. The conditions noted are these: 10 days after withdrawal; listed as N-[N-(3-pyridinesulfonyl)-L-3,3-dimethyl-4-thiaprolyl]-O-[1-methylpiperzain-4-yl. The procedure: Quantitative Reverse Transcription-PCR: IL-2, IL-10, MCP-1. RNA was isolated from 30 mg of frozen guinea pig spinal cord using the S.N.A.P.™ (simple nucleic acid preparation) total RNA Isolation Kit (Invitrogen) according to manufacturer's instructions, modified to include a second DNAse treatment step followed by an additional purification over the S.N.A.P. column.
Primer/probe sequences and concentrations for IL-2, IL-10, and MCP-1 are given in Table 7, as well as the standard RNA used for each gene. RT-PCR was carried out in triplicate using the ABI PRISM® 7700 Sequence Detection System. 50 μl reactions contained 10 to 800 ng of total RNA and primers and probes at the concentrations indicated above in reaction buffer consisting of 6.67% glycerol (Amresco); 5.5 mM MgCl; 300 μM DATP, dCTP, dGTP, and dUTP; 100 nM probe; 1.25 unit of AmpliTaq Gold® DNA Polymerase (Applied Biosystems); 1× TaqMan® Buffer A (TaqMan® PCR Core reagents kit, Applied Biosystems), 20 units of RNase Inhibitor (Roche); 1.25 unit of murine leukemia virus (MuLV) Reverse Transcriptase (Applied Biosystems). Reverse-transcription of RNA was carried out at 48° C. for 30 min., followed by a 10 min. denaturing step at 95° C. PCR was carried out by 40 thermo-cycles consisting of 95° C. for 15 seconds followed by 60° C. for 1 minute. Each plate included a standard curve using the standard RNA listed in Table 7 and two additional control samples: 1) a positive control RNA sample used on all plates, 2) a non-template control (NTC).
The correlation coefficients of the standard curves were greater than 0.990 for all data shown. The coefficients of variation for sample triplicates were less than 0.2. Since the RNA used for the standard curve is a heterogeneous mix of RNA containing a constant but unknown amount of the target message, the numbers calculated are relative.

Data set [8] deals with spinal cord lesions of paralyzed EAE guinea pigs. The data set can be described thus: Example 2: spontaneous remyelination in chronic EAE (SCR, toluidine blue, EM, lesion area analysis, motor function). It is filed as in vivo, guinea pig.
Data set [9] concerns brain and spinal cord of EAE guinea pigs. The experiment in a line: Chronic EAE: histology and blinded pathological scoring of brain and spinal cord sections (H-E, SCR). As to conditions: versus saline; listed as N-[N-(3-pyridinesulfonyl)-L-3,3-dimethyl-4-thiaprolyl]-O-[1-methylpiperzain-4-yl. It is filed as in vivo, guinea pig. The procedure:
Animal Sacrifice and Histological Analysis. Untreated, chronic EAE animals (n=5) were sacrificed on day 40, as well as non-EAE controls (n=5). Following each 10-day treatment interval, 5 animals from each group were sacrificed (0.25 mL sodium pentobarbital), blood samples were collected for FACS analysis (see below), and the brain and spinal cord dissected and sectioned. Three spinal sections were used, corresponding to lumbar, thoracic and cervical regions of the cord. The brain was cut into five transverse sections. The first three proximal sections were combined in one block, and the last two distal sections in another. Tissues were fixed in 10% formalin and embedded in paraffin. […] sections were stained with hematoxylin-eosin (H-E) or solochrome-R-cyanlin (SCR) and evaluated by a blinded observer in each of four categories: (1) meningeal inflammation, (2) perivascular infiltration, (3) encephalitis or (4) myelitis and demyelination (Table 6). The combined pathological score represents the total score (out of a potential 20) from all 5 CNS sections in each animal.

The subject of data set [10] is infiltrating cells in spinal cord. The experiment in a line: Chronic EAE: mean cell counts in spinal cord (H-E sections, 0.12 mm^2 fields). It is filed as in vivo, guinea pig. The conditions noted are these: listed as N-[N-(3-pyridinesulfonyl)-L-3,3-dimethyl-4-thiaprolyl]-O-[1-methylpiperzain-4-yl. The protocol:
To quantify the abnormalities observed in the spinal cord, sections stained with H-E were divided into 12 representative pie-shaped areas. In each area, the number of cells within a 0.12 mm^2 field of view was counted using Sigma Scan Pro image analysis software (SPSS Inc.), and the combined mean number of cells in all 12 areas was calculated for the whole spinal cord (36 fields of view per animal). Note that as all cell nuclei were counted, the number of cells may include neurons and glial cells in addition to infiltrates.

For data set [11], the target named is α4 integrin (human) (human) (UniProt P13612).
Data set [12] shares this target. This is another data set of the same source.
For data set [13] the target is unchanged. This is another data set of the same source.
Data set [14] has the same target. This is another data set of the same source.
In data set [15] the target is α4 integrin (rat) (rat).
Data set [16] concerns the target α4 integrin (human) (human) (UniProt P13612). This is another data set of the same source.
The target of data set [17] is LFA-1 (rat) (rat).
Data set [18] concerns the target β1 integrin (human) (human) (UniProt P05556).
Data set [19] shares this target. The source holds these as a separate data set.
Data set [20] has as its target Mac-1 (human) (human) (UniProt P11215).
The target in data set [21] is CD4 (rat) (rat) (UniProt P05540).
For data set [22], the target named is α4 integrin (mouse) (mouse) (UniProt Q00651).
In data set [23] the target is CD2 (rat) (rat) (UniProt P08921).
Data set [24] has as its target monocyte/T cell surface antigen (rat) (rat).
Data set [25] concerns the target CD45 (rat) (rat) (UniProt P04157).
The target of data set [26] is T1, VLA-4 (Homo sapiens, UniProt P05556+P13612).
T1 construct: endogenous in cells; host or cells: Jurkat cells
The conditions noted are these: cited from earlier work.

The test system of data set [27] is human lymphocytes. The conditions noted are these: cited from earlier work.
The target in data set [28] is α4 integrin (human) (human) (UniProt P13612). This is another data set of the same source.

For the molecule GoH3 (antibody), in data set [1], the Relative Binding to EAE Vessels (% of control) was 88 % of control.

MEL-14 (antibody): the Relative Binding to EAE Vessels (% of Control), mouse lymphocytes in [2] was 92 % of Control.

For OX-7 (antibody), the Relative Binding to EAE Vessels (% of Control), rat lymphocytes in data set [3] is 87 % of Control.

Consider TS1/18 (antibody), for which the Relative Binding to EAE Vessels (% of control) in data set [4] is 98 % of control.

Usually IC50 stands for the concentration that inhibits the measured activity by half. On to `CC(C)OC(=O)[C@H](Cc1ccc(OC(=O)N2CCN(C)CC2)cc1)NC(=O)[C@H]1N(S(=O)(=O)c2cccnc2)CSC1(C)C` [Example 381, N-[N-(3-pyridinesulfonyl)-L-3,3-dimethyl-4-thiaprolyl]-O-[1-methylpiperazin-4-ylcarbonyl]-L-tyrosine isopropyl ester], for which the IC50 in [5] was 1 to 10 nM. In addition, in [6] (n=5, p<0.05 Mann Whitney), the “mean clinical score day 70-80 after withdrawal (30 days treatment, 10 days off) versus continuous treatment” value is on record as “significantly higher”. The escape from treatment entry in data set [6] (up to 40 days of treatment) was “no escape from treatment”. The “adverse side effects during prolonged administration” value in data set [6] (up to 40 days, 30 mg/kg 2x/day s.c., guinea pig, 30 mg/kg) is “no adverse side effects”. Besides, in [7], the “cytokine RNA after withdrawal of compound” value is recorded as “rose to levels comparable to those in saline-treated animals”. The “SCR-stained spinal cord lesions after 20 days of treatment” value in [8] (20 days, listed as N-[N-(3-pyridinesulfonyl)-L-3,3-dimethyl-4-thiaprolyl]-O-[1-methylpiperzain-4-yl) is reported as “lesions with a diffuse blue stain covering the plaque”. The “SCR-stained spinal cord lesions after 40 days of treatment” value in data set [8] (40 days, listed as N-[N-(3-pyridinesulfonyl)-L-3,3-dimethyl-4-thiaprolyl]-O-[1-methylpiperzain-4-yl) is on record as “majority of lesions showed clear myelin pallor”. In data set [8] (after 20, 30 or 40 days of therapy), the “percentage of remyelination (mean percent of lesion area with myelin pallor)” value was determined as 50%. Also, in data set [8] (day 30 of treatment, listed as N-[N-(3-pyridinesulfonyl)-L-3,3-dimethyl-4-thiaprolyl]-O-[1-methylpiperzain-4-yl), the “semithin and EM sections of lesions” value is given as “multiple layers of thin myelin wrappings around large diameter axons indicative of remyelination”. Moreover, in data set [8] (time-dependent), the “incidence of remyelination (lesions with myelin pallor) versus saline” value was “increased the incidence of remyelination”. Also, in data set [9], the “spinal cord histology after 20 days of treatment (day 60)” value is on record as “much smaller area of demyelination”; the “spinal cord histology after 40 days of treatment (day 80)” value is “almost no meningeal and perivascular inflammation”. Besides, the “cell number in spinal cord versus saline-treated animals” value in [10] (after 10, 20, 30 or 40 days, p<0.001 two-way ANOVA) was “fewer cells”. Moreover, in data set [10] (p<0.05), the “mean cell count after removal of compound for 10 days versus continuous treatment” value is listed as “significantly increased”.

Take HP2/1 (antibody): the Jurkat binding to FN-coated plate (% inhibition) in data set [11] turned out to be 47 % inhibition. The molecule further displayed a % Input Binding Jurkat to TNFα-stimulated rat brain EC clone in [12] of 6 % input. The molecule also registered a % Input Binding Ramos to VCAM-1 transfected L cells in [13] of 0 % input. Besides, the Relative Binding to EAE Vessels (% of Control), human lymphocytes in [14] was 0 % of Control. The Relative Binding to EAE Vessels (% of Control), rat lymphocytes in data set [15] was 18 % of Control. For the same molecule, the Relative Binding to EAE Vessels (% of control) in [16] is 3 % of control.

Consider HP1/7 (antibody), for which the Relative Binding to EAE Vessels (% of control) in [16] is 338 % of control.

Turning to OX-52 (antibody), the Relative Binding to EAE Vessels (% of Control), rat lymphocytes in data set [17] is 87 % of Control.

With AIIB2 (antibody), in [18], the Relative Binding to EAE Vessels (% of Control), human lymphocytes is 7 % of Control. Further, the Relative Binding to EAE Vessels (% of control) in [19] was 8 % of control.

On to LM2/1 (antibody), for which the Relative Binding to EAE Vessels (% of control) in data set [20] is 107 % of control.

As to OX-35 (antibody), the Relative Binding to EAE Vessels (% of Control), rat lymphocytes in data set [21] is 107 % of Control.

Consider R1-2 (antibody), for which the Relative Binding to EAE Vessels (% of Control), mouse lymphocytes in data set [22] was 43 % of Control.

Take P4G9 (antibody): the Relative Binding to EAE Vessels (% of control) in data set [16] was 151 % of control.

For OX-34 (antibody), the Relative Binding to EAE Vessels (% of Control), rat lymphocytes in data set [23] was 100 % of Control.

For OX-44 (antibody), the Relative Binding to EAE Vessels (% of Control), rat lymphocytes in data set [24] is 102 % of Control.

Take OX-1 (antibody): the Relative Binding to EAE Vessels (% of Control), rat lymphocytes in data set [25] was 90 % of Control.

A word on the melting point: it is the temperature, or range, at which the solid turns liquid. `Cc1ccc(S(=O)(=O)N2CCC[C@H]2C(=O)N[C@@H](Cc2ccc(OC(=O)N3CCN(CCO)CC3)cc2)C(=O)OC(C)(C)C)cc1` had a melting point of 158 to 160 °C.

B1: TY21.6 (antibody, V domains shown)
VH: EVQLQQSGAELVKPGASVKLSCTASGFNIKDTYIHCVKQRPEQGLEWIGRIDPANGYTKYDPKFQGKATITADTSSNTAYLQLSSLTSEDTAVYFCAREGYYGNYGVYAMDYWGQGTSVTVSS
VL: DIQMTQSPSSLSASLGGKVTITCKTSQDINKYMAWYQHKPGKRPRLLIHYTSALQPGIPSRFSGSGSGRDYSFNISNLEPEDIATYYCLQYDNLWTFGGGTKLEIK
In data set [11], B1 returned a Jurkat binding to FN-coated plate (% inhibition) of 45 % inhibition. In addition, the % Input Binding Jurkat to TNFα-stimulated rat brain EC clone in [12] was 8 % input. Moreover, in [26], the “binding affinity for VLA-4” value is listed as “about 10^9 M^−1”. The same molecule had a % Input Binding Ramos to VCAM-1 transfected L cells in data set [13] of 1 % input. The “human lymphocyte binding to TNF-stimulated rat brain cell cultures” value in [27] is given as “inhibit human lymphocyte binding”. In data set [28], this molecule displayed a Binding of U937 cells to inflamed vessels in sections of EAE brain of 0.
